In paper PMC4417160, “RBM7 subunit of the NEXT complex binds U-rich sequences and targets 3′-end extended forms of snRNAs”:

How the values were obtained:
Assay in all cases: fluorescence anisotropy; FA: 50 mM Tris pH 7.0 (also given as pH 8), 200 mM NaCl, 10 mM 2-mercaptoethanol, 20 C; NMR: 20 mM Bis-Tris pH 7.0, 200 mM NaCl, 4 mM 2-mercaptoethanol; pull-down: HSB, 1 h at 30 C
Conditions in all cases: protein: recombinant; tags: 6xHis-Smt3 removed with Ulp1; label: 5' fluorescein
RBM7 RRM = target: T1, RBM7 RRM (Homo sapiens (cDNA from HEK293T-Rex), UniProt Q9Y580 6-94)
T1 sequence: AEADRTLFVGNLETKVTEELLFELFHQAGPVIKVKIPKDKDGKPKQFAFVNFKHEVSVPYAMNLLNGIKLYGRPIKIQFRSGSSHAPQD

RBM7 RRM K38A = target: T2, RBM7 RRM K38A (Homo sapiens, UniProt Q9Y580 6-94, K38A)
T2 sequence: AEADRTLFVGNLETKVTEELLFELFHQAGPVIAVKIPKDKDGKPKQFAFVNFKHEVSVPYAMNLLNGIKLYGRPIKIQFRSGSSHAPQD

RBM7 RRM K40A = target: T3, RBM7 RRM K40A (Homo sapiens, UniProt Q9Y580 6-94, K40A)
T3 sequence: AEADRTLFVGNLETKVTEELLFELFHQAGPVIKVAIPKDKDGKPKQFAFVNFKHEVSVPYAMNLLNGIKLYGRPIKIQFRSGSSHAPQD

RBM7 RRM K81A = target: T4, RBM7 RRM K81A (Homo sapiens, UniProt Q9Y580 6-94, K81A)
T4 sequence: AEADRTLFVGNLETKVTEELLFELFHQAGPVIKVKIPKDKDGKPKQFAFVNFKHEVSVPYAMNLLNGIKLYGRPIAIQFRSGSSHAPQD

Binder	Kd (RBM7 RRM) [µM]	further results
AAAAAAA (ssRNA) [A7]		binding result (RBM7 RRM): no binding
CUUCU (ssRNA) [Y5]	90 ± 10	
UUUUUUU (ssRNA) [U7]	60 ± 10	
AUUAUUA (ssRNA) [AU7]	130 ± 10	
CUCUCUC (ssRNA) [Y7]	70 ± 10	Kd (RBM7 RRM K38A): 90 ± 10 µM; Kd (RBM7 RRM K40A): 200 ± 20 µM; Kd (RBM7 RRM K81A): 100 ± 10 µM
CUCU (ssRNA) [Y4]	160 ± 10	
